Measurements taken from patent US20200040092A1 (YISSUM RESEARCH DEVELOPMENT COMPANY OF THE HEBREW …, published 2020).

Key:
[1] = target: T1, hNectin-2 on cells (CHO cells expressing hNectin-2); RPMI-8866 cells overexpressing hNectin-2; human tumor … (human, UniProt Q92692 32-538); assay: FACS on the CHO cells expressing hNectin-2 of FIG. 7C
T1 construct: whole, on cells
T1 sequence (looked up): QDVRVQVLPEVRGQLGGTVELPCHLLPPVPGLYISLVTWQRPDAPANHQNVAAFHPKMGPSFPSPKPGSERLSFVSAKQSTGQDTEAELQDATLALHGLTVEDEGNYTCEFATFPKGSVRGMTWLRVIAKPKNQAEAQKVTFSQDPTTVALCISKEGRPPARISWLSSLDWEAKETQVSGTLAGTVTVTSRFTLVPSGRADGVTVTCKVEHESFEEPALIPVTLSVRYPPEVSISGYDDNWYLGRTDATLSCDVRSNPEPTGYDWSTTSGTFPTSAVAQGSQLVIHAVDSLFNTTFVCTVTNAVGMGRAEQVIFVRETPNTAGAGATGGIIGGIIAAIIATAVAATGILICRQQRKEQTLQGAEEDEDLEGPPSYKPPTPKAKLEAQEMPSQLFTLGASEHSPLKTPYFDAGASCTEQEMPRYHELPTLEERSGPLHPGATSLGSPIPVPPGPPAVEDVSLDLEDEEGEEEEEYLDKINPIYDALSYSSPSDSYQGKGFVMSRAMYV

[2] = target: T2, human PVR on cells (endogenous on HepG2 and other human tumor cell lines; full-length hPVR overexpressed in B16 cells) (human), P15151; assay: FACS on B16-hPVR cells, anti-human-IgG APC detection; details: remark: other sources report otherwise
T2 chain: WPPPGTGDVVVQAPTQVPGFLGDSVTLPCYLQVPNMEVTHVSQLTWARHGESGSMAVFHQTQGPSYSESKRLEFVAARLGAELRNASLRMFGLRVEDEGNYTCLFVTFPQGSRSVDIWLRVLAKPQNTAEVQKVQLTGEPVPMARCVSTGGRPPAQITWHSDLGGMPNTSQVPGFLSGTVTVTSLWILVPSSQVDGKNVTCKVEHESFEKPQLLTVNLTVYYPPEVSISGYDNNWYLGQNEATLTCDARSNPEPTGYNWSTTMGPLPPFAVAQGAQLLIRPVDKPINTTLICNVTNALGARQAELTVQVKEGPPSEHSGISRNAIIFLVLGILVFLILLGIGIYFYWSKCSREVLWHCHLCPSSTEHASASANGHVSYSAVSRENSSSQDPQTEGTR

[3] = target: T3, human PVR on cells (endogenous on HepG2 and other human tumor cell lines); full-length hPVR overexpressed in … (human, UniProt P15151 21-417); assay: cell-based or functional assay
T3 sequence (looked up): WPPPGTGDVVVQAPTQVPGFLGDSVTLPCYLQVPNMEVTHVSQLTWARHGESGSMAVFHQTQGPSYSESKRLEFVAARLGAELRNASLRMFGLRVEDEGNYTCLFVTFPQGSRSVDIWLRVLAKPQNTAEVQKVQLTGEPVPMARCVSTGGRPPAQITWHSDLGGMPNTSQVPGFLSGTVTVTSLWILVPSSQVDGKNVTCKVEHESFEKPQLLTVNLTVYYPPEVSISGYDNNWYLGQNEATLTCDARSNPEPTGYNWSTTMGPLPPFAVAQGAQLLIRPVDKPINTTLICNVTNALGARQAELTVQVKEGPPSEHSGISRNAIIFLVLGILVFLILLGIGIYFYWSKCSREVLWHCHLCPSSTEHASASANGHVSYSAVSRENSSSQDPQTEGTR

[4] = target: T3, human PVR on cells (endogenous on HepG2 …); assay: cell-based or functional assay; remark: listed apart in the source

B1: anti-PVR monoclonal antibody 4E5 (antibody, mouse IgG1, V domains shown)
VH: EVKLLESGGGLVQPGGSLKLSCAASGFDFSRYWMTWVRQAPGKGLEWIGEIHPDSSKINYTPSQKDKFIISRDNAKNTLFLQMSKVRFEDTALYFCARPDGNYNALDYWGQGTSVTVSS
VL: DIVMTQSHKFMSTSVGDRVSITCKASQDVGTAVTWYQQKPGQSPKLLIYWASTRHTGVPDRFTGSESGTDFTLTISDVQSEDLANYFCQQYSRYPYTFGGGTKLEIK
notes: also called hPVR.07; PVR.07
binding result [1]: no binding

B2: Human TIGIT-Fc, Q495A1 22-141 (Fc fusion, UniProt Q495A1 22-141, looked up, not shown: a dimerising Fc or GST)
chain: MMTGTIETTGNISAEKGGSIILQCHLSSTTAQVTQVNWEQQDQLLAICNADLGWHISPSFKDRVAPGPGLGLTLQSLTVNDTGEYFCIYHTYPDGTYTGRIFLEVLESSVAEHGARFQIP
fold signal against DNAM-1-Fc [2]: 2 to 4 fold

B3: anti-PVR monoclonal antibody 7D4 (antibody, mouse IgG1, V domains shown)
VH: EVQLQQSGPELVKPGASVKISCKTSGYTFTEYTMHWVKQSHGESLEWIGGIDPNNGGTNYNQNFKGKATLTVDKSSSTAYMELRSLTSEDSAVYYCAGVIPLEYWGQGTSVTVSS
VL: DIVMTQSQKFMSTSVGDRVSVTCKASQNVYTNVAWYQQKPGQSPKALIYSASYRYRGVPDRFTGSGSGTDFTLTISNVQSEDLADYFCQQYNSYPLAFGSGTKLEIK
notes: also called hPVR.01; PVR.01
NK cell killing of the human breast adenocarcinoma cell line MDA-MB-231 ([35S]-Methionine release, specific killing) [3]: 2 fold
binding result [1]: no binding

B4: anti-PVR monoclonal antibody 5B9 (antibody, mouse IgG1, V domains shown)
VH: QVQLQQSGAELMKPGASVKISCKATGYTFSNYWIEWIKQRPGHGLEWIGEIFPGSGRINFNEKFKGKATFTADTSSDTTYMQLSSLTSADSAVYYCARTKIYGNSFDYWGQGTTLTVSP
VL: DIMMTQSHKFMSTSVGDRVNITCKASQDVGTAVVWYQQKPGQSPKLLIYWASSRHNGVPDRFTGSGSGTDFTLTISNVQSEDLSDYFCQQYSRYPLTFGAGTKLELK
notes: also called hPVR.09; PVR.09
Percentage of dead cells within 24 hrs relative to mIgG treated cells (MTT), A549 [4]: 25%
Percentage of dead cells within 24 hrs relative to mIgG treated cells (MTT), HCT-116 [4]: 22%
Percentage of dead cells within 24 hrs relative to mIgG treated cells (MTT), MDA-MB-231 [4]: 20%
Percentage of dead cells within 24 hrs relative to mIgG treated cells (MTT), Mel-624 [4]: 32%
binding result [1]: no binding
